According to the DeepSol protein solubility set:

test: soluble on expression in E. coli; label from the status in PepcDB or PDB records

Soluble on expression in E. coli, soluble:
MSIMLPINNNFSLSQNSFYNTISGTYADYFSAWDKWEKQALPGENRNEAVSLLKECLINQFSELQLNRLNLSSLPDNLPPQITVLEITQNALISLPELPASLEYLDACDNRLSTLPELPASLKHLDVDNNQLTMLPELPALLEYINADNNQLTMLPELPTSLEVLSVRNNQLTFLPELPESLEALDVSTNLLESLPAVPVRNHHSEETEIFFRCRENRITHIPENILSLDPTCTIILEDNPLSSRIRESLSQQTAQPDYHGPRIYFSMSDGQQNTLHRPLADAVTAWFPENKQSDVSQIWHAFEHEEHANTFSAFLDRLSDTVSARNTSGFREQVAAWLEKLSASAELRQQSFAVAADATESCEDRVALTWNNLRKTLLVHQASEGLFDNDTGALLSLGREMFRLEILEDIARDKVRTLHFVDEIEVYLAFQTMLAEKLQLSTAVKEMRFYGVSGVTANDLRTAEAMVRSREENEFTDWFSLWGPWHAVLKRTEADRWALAEEQKYEMLENEYPQRVADRLKASGLSGDADAEREAGAQVMRETEQQIYRQLTDEVLALRLPENGSQLHHS, VQEPLRVPPSAPARLVVLASGTGSLLRSLLDAAVGDYPARVVAVGVDRECRAAEIAAEASVPVFTVRLADHPSRDAWDVAITAATAAHEPDLVVSAGFMRILGPQFLSRFYGRTLNTHPALLPAFPGTHGVADALAYGVKVTGATVHLVDAGTDTGPILAQQPVPVLDGDDEETLHERIKVTERRLLVAAVAALATHGVTVVGRTATMGRKVTIG, MSLTLTIEEIAKTKKLLVVSDFDGTIAGFSKDAYNVPINQKSLKAVKDLSQQADTDVVILSGRHLEGLKTVLDLGQYDITMVGSHGSEDSSRPRTLTPEEVARLAKIEADLEKIVDGIEGAFVEIKPFHRVLHFIRVSDKDKVQGILAQAAHVDSSGLKVTNGKSIIEYSISSTTKGTWLKEYVDRTEPTGVIFLGDDTTDEHGFKALENDDRALTVKVGEGDTAAKTRVDDVDNVGIFLEKLAYHRMQYAESVRLGEGHHHHHH, MSLSIIVQKYGGTSVGSVQRIEHVANRIIATAASGKKVVVVVSAMGKTTDELVGLASEITDEPRKREMDMLLATGEQVTIALLAMALHKRGQEATSLTGWQAGMITESHHGNARILEVERARMDELLDKVHVVIVAGFQGIDQQGEIMTLGRGGSDTSAVAIAAALKAERCEIYTDVTGVFTTDPRVVKQARKLQTISYDEMLEMANLGASVLHPRAVEFAKNYEIPLLVASSMVDEPGTMIEEEGTMEQNLLVRGIAFENDVTKVTVHGLPNEIHTLPTLFAHLSAAGINVDIIIQNQTDSGMAISFSITQSSLKETLARLEELKGELSFQGIDYEEELAKVSIVGSGMVSNPGVAAKMFEILAANDIAIKMVSTSEIKVSAVIDEELMVLAVEMLHEQFKLHEEEPAVAVKVEGHHHHHH, MGDVSKLSSNQVKLLETAFRDFETPEGSGRVSTDQIGIILEVLGIQQTKSTIRQLIDEFDPFGNGDIDFDSFKIIGARFLGEEVNPEQMQQELREAFRLYDKEGNGYISTDVMREILAELDETLSSEDLDAMIDEIDADGSGTVDFEEFMGVMTGGDE

Soluble on expression in E. coli, not soluble:
MGSDKIHHHHHHMTGVQFIDVTDSEAIFDDNQWDAVVLVTHGLDAIAQEELAMLASHGAQVDARVGRSTTLLFAPGLAGGRLIVAPVADGDSDIQDVRGYSDAARQGIKVAFDAGARRPLLIVTPSTQARYAQSMGVAALGCAQALWQSLERREVLGEMDNISQIGLLVDDKAGELLCAIEAGKHLARDLCGTEPERMSAPAFAQYCVDALEGLDLTMSVVEDRDVLERDYPLLSAVGRASFAVSRHQPRVVKLEYKAEGPIERSYFFAGKGVVYDTGGADLKVGGAMAGMSRDKGGAAAVAGLMKTLALLKPKGVRVVAELGLVRNSIGSEAFVTDEIITSHAGVRVRIGNTDAEGRLVLADLLSHLRLKAQDAVAPQLFSVATLTGHVVRAYGGYTAVVENAVARQQQVGDSLQTISEAWGEPIEVSRLRRDDYQKIVDPSGAADVLSSNNAPSSVTARGHQYPAAFLLKASGLEAHGLTSDKPLAYTHVDIAGSATEGDPLYGTPTAAPLVSLCQLIRG, MSKKLKPFEILEDSCASVCIWLNGEPTAISNRAENLWNKAKYRVATDGAVNEILKRKSFVEWPHIICGDFDSINKQIDTKNAKVVHLPDQDYTDLSKSVQWCLEQKTLTSWEFENIVVLGGLNGRFDHTMSTLSSLIRFVDSQTPVIVLDSRNLVLAVPTGDSNLDVNLEMTTKMCGIIPIVQKETIKTLLLNLENLSARRMKLPRAKYF, MAKNKTVFSCTECGGQSPKWQGQCPHCSAWNTLVEAVAAPAAASPRFQSWAANVTKVQKLSEVQTEETPRDPSGIDELDRVLGGGIVRGAVVLIGGDPGIGKSTLLLQALSQIGRSRKVLYVSGEESAQQIALRASRLALDTSSVDLLAEICIENILETLKREQPEVVVIDSIQTLYTEQVTSAPGSVSQVRECAAQLTRMAKQSGITVLLVGHVTKEGSLAGPRVLEHMVDTVLYFEGDSHSSYRMIRAIKNRFGAVNELGVFAMTDRGLKGVSNPSAIFLSSYRDDVAGSCVLVTQEGTRPLLVEIQALVDDCHGFQPKRLTVGLEQNRLSMLLAVLHRHGGVACFDQDVFLNAVGGVKINEPAADLAIILAMVSSLRNKALPEKLVVFGEVGLAGEVRPVTRGQERLKEAAKLGFTRAIVPTANKPRQEIEGLKVLAVDRLDQAVEYCRE, MIFKSNFTTRAGLAALALSFAAAGAPSVASAQQAGGKPPQGWFKVCTKQEDNDVCIVQNLLTANNGQLVTAVGLITVSGKVNRKVMQVSVPSARMIPPGVQMQIDGGKGVKLDYAICMPDKCVAEAPLSDALIAQLKKGNEVVFTSVNFQRAPNPIKMSLEGFTGVFDGEPIEQSQLEERQRLLQEEMQKKAEDARKKLEEAQKAAKQQ, AFRGLRKGQFFDENALMLIATIAAFFVGAYEESVSIMVFYSAGEFLQKLAVSRSKKSLKALVDVAPNLAYLKKGDELVSVAPEDLRVNDIVVVKVGEKVPVDGVVVKGESLLDERALSGESMPVNVSENSKVLGGSLNLKAVLEIQVEKMYKDSSIAKVVDLVQ, MDVEKLNLDNIISRLLEVRGSKPGKNVQLTESEIKGLCQKSREIFLSQPILLELEAPLKICGDVHGQYYDLLRLFEYGGFPPESNYLFLGDYVDRGKQSLETICLLLAYKIKYPENFFLLRGNHECASINRIYGFYDECKRRYNIKLWKTFTDCFNCLPVAAIIDEKIFCCHGGLSPDLQSMEQIRRIMRPTDVPDQGLLCDLLWSDPDKDVTGWGENDRGVSFTFGPEVVAKFLHKHDLDLICRAHQVVEDGYEFFAKRQLVTLFSAPNYCGEFDNAGSMMTVDETLMCSFQILKPADKKKYPYGAGGVGSNRPVTPPRNAPAAQPKKGAKK, MGSDKIHHHHHHMLGDLLTTFFEVARQGSITTAARQLGVSQPTVTARIRQLEDVYGVELFYRRASRVDLSDVGVALMPVVEQLMQQESNADYLLRNAGNLRFGNLRIGATGPYYILRSVAAFRQRYPAVEVSIEIGNSQQMIEALLEYRIDAAVSSHAVDDSRLARIRLASDPMVLVVHPEHPFARMPHIDIARLAECHLLVREHGSMTRQATEAALAACGQELPRHMVIGSREAIYEAIRQNIGASVVPAGEVPRDPSLRIVPFAQRPPVIHEYLYCLESRRHTRLVGALLECVESLAPHQQAQAA, FAPLEADHPGRSGLLALLDNPDAYAARALSARMAGRSLDLMYYIWRTDLTGWLLIEELLAAADRGVRVRLLLDDVNVQGFDRAFLALNQHPNVEVRLFNPIRNRGHVLRRTLEMLLGLSRFNRRMHNKAWIADGRLAIVGGRNIGDTYYDAEESGLAMSRDADVMLAGPVVAEVEGLFDSYWNLGLALPILTLWPE, FLEVNYYSRVLGMNRVMNVLLPEESDHNPNWTNDSLKDLPVLYLLHGMSGNHFDWQRKSDIERLLRQTKLAVIMPAADLAWYTNTDYGMNYFDAISQELPRKVASLFPQISTKRKKHFVAGMSMGGYGAFKLAFSSSYFSYAASLSGTLISSLNYPGFLDMEKQAYWKGIFGDLDKFSGSKNDIFELAKRQSNTGIELPKLYAWVGQQDFFYGANEKAIPRLRKMGYDVSYETNPGDHEWYYWSKYIENILQWLPINYQAEKRLS, CRELLPVEARQKTLLIDADLTLDEITPKFLNVLEQFAPFGFSNREPLFTATGCRLVGKPKLLRERHVKFTVRGEQSSSFEVIAFDRPDIFNDLEAHGSASALQLVCIPERNQWNGREYVQLRVMDMAIG
